According to paper PMC3381513:
Like-named read-outs stand apart in the source and are kept apart here.

Legend:
CUGBP1 RRM1/2 [1] = target: T1, CUGBP1 RRM1/2 (human, UniProt Q92879 14-187); experiment: filter binding
CUGBP1 RRM1/2 [2] = target: T1, CUGBP1 RRM1/2; experiment: filter binding; remark: listed apart in the source
CUGBP1 RRM1/2 [3] = target: T1, CUGBP1 RRM1/2; experiment: filter binding; remark: listed apart in the source
CUGBP1 RRM1/2 [4] = target: T1, CUGBP1 RRM1/2; experiment: crystal structure
CUGBP1 RRM1/2 [5] = target: T1, CUGBP1 RRM1/2; experiment: EMSA
CUGBP1 RRM2 (ITC) = CUGBP1 RRM2 (ITC) (human, UniProt Q92879 109-187); experiment: ITC
CUGBP1 RRM1 (ITC) = CUGBP1 RRM1 (ITC) (human, UniProt Q92879 16-99); experiment: ITC
CUGBP1 RRM1 (ITC), sequence (Q92879 16-99): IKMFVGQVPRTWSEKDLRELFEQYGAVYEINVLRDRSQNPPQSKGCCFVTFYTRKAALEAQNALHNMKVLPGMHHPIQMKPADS

T1 sequence (Q92879 14-187): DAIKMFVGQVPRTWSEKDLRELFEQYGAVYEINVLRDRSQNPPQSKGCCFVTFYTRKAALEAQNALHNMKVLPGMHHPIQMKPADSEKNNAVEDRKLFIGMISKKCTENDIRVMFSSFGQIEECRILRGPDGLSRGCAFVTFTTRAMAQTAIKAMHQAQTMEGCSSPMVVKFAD
CUGBP1 RRM2 (ITC), sequence (Q92879 109-187): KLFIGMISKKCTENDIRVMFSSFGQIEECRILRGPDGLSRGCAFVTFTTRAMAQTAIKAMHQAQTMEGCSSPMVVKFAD

Does GUUAUUUUUAUU (ssRNA) [A4A10] bind (CUGBP1 RRM1/2 [1])?
Result: no binding

With GUUGUUUUUAUU (ssRNA) [G4A10] as the binder, how does the binding signal (CUGBP1 RRM1/2 [2]) read?
Its binding signal is 2.5 fold reduction in binding vs N2.

With GUUGCUUUUGCU (ssRNA) [C5C11] as the binder, how does the binding signal (CUGBP1 RRM1/2 [3]) read?
The binding signal was ~5 fold loss in affinity vs N2.

Does GUUGUUUUUGUU (ssRNA, U2 = 5-bromouridine) [BrU2 sequence 2] bind (CUGBP1 RRM1/2 [4])?
Result: binds

Does GUUUUUUUUUUU (ssRNA) [U4U10] bind (CUGBP1 RRM1/2 [1])?
Result: no binding

Does UGUGUGUUGUGUG (ssRNA) [sequence 3, 13-mer] bind (CUGBP1 RRM1/2 [5])?
Result: binds

How did the binding signal (CUGBP1 RRM1/2 [2]) turn out when GUUAUUUUUGUU (ssRNA) [A4G10] was run?
The binding signal was 4.4 fold reduction in binding vs N2.

Does GUUCUUUUUCUU (ssRNA) [C4C10] bind (CUGBP1 RRM1/2 [1])?
Result: no binding

Does GUUGUUUUUGUU (ssRNA, U8 = 5-bromouridine) [BrU8 sequence 2] bind (CUGBP1 RRM1/2 [4])?
Result: binds

With UUGUU (ssRNA) [UUGUU 5-nt] as the binder, how does the Kd (CUGBP1 RRM2 (ITC)) read?
Its Kd is 45 µM.

And the Kd (CUGBP1 RRM1 (ITC))?
The Kd was 29 µM.
